One block for each binder: values may come before it.
Columns and labels:
CXCR4 = target: T1, CXCR4 (UniProt P61073 1-352, limits assumed); test: FACS on HEK293-CXCR4 cells
T1 construct: whole, on cells; also called HEK293-CXCR4

human CCR7 [1] = target: T2, human CCR7 (human, UniProt P32248 25-378); test: FACS titration, human CD4+ T cells from PBMC
T2 construct: The assay field tells which; also called hCCR7; NIH3T3.hCCR7
T2 sequence: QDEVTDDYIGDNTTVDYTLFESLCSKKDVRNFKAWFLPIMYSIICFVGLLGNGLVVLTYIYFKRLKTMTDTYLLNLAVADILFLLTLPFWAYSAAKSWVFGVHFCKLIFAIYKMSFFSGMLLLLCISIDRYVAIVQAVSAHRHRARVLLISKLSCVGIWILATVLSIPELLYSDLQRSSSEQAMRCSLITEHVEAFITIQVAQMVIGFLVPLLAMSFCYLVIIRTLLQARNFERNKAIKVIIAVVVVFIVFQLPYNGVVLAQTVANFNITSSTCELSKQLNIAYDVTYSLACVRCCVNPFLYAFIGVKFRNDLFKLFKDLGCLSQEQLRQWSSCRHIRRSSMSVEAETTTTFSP

CCR6 = target: T3, CCR6 (UniProt P51684 1-374, limits assumed); test: FACS on PF382 cells (CCR7-/CCR9+/CCR6+)
T3 construct: whole, on cells; also called PF382 cells (CCR7-/CCR9+/CCR6+)
T3 sequence (looked up): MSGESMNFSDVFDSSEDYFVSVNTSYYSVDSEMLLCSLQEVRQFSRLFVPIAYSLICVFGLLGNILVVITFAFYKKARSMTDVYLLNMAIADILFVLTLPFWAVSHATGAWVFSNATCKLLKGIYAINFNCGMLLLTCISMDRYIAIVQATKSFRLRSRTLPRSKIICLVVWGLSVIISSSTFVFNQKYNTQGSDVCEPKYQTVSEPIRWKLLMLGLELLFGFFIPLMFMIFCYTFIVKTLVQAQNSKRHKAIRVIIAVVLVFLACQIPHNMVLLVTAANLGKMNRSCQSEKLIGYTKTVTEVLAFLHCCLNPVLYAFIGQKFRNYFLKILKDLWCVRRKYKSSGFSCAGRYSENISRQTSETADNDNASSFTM

CCR9 = target: T4, CCR9 (UniProt P51686 1-369, limits assumed); test: FACS on PF382 cells (CCR7-/CCR9+/CCR6+)
T4 construct: whole, on cells; also called PF382 cells (CCR7-/CCR9+/CCR6+)
T4 sequence (looked up): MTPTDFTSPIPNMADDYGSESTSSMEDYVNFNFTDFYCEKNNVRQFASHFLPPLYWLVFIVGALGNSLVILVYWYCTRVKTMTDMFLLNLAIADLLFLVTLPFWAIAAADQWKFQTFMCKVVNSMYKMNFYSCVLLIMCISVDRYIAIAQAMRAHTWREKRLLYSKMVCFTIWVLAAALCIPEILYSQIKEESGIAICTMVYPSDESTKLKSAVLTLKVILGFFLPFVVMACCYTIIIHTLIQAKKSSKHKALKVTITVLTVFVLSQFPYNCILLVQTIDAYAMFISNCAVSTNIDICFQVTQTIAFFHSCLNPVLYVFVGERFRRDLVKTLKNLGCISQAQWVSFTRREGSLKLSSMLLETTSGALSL

human CCR7 [2] = target: T2, human CCR7; test: ELISA on CCR7-expressing VLPs, pH 5.8 buffer
cynomolgus monkey CCR7 [3] = target: T5, cynomolgus monkey CCR7 (cynomolgus monkey, UniProt P32248 25-378 (human entry)); test: FACS titration, cynomolgus CD4+ T cells
T5 construct: also called Cyno CCR7; NIH3T3.cyno CCR7
T5 sequence: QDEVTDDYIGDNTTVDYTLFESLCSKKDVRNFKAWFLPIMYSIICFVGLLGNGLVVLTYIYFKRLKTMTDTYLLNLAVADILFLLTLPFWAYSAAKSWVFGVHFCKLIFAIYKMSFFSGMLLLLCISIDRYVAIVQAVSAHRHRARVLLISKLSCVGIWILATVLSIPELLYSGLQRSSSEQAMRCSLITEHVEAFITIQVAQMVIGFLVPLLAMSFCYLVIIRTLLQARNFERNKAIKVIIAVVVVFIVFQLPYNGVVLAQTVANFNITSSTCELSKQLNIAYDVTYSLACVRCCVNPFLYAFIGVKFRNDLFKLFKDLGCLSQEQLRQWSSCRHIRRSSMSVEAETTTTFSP

human CCR7 [4] = target: T2, human CCR7; test: FACS titration, NIH3T3 cells expressing human CCR7
cynomolgus monkey CCR7 [5] = target: T5, cynomolgus monkey CCR7; test: FACS titration, NIH3T3 cells expressing cyno CCR7
CCR8 = target: T6, CCR8 (UniProt P51685 1-355, limits assumed); test: FACS on CHO-CCR8 cells
T6 construct: whole, on cells; also called CHO-CCR8

human CCR7 [6] = target: T2, human CCR7; test: FACS titration, DEL cells (CCR7 receptor levels >=100,000)
human CCR7 [7] = target: T2, human CCR7; test: ELISA on CCR7-expressing VLPs, pH 7.4 buffer
human CCR7 [8] = target: T2, human CCR7; test: ELISA on CCR7-expressing VLPs, Kd at pH 5.8 over Kd at pH 7.4
rat CCR7 [9] = target: T7, rat CCR7 (rat, UniProt P47774 25-378 (mouse entry)); test: FACS titration, Wistar rat CD4+ T cells
T7 construct: also called NIH3T3.rat CCR7
T7 chain: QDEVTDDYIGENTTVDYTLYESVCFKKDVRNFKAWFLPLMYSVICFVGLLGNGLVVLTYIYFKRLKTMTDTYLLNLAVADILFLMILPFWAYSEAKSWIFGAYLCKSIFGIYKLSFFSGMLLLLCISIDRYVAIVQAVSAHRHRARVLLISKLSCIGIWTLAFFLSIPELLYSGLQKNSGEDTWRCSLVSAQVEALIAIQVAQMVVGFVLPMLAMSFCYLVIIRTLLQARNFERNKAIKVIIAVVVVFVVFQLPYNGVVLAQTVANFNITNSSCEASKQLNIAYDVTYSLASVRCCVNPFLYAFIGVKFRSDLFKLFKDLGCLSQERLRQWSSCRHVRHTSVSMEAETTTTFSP

cynomolgus monkey CCR7 [10] = target: T5, cynomolgus monkey CCR7; test: FACS titration, cynomolgus CD4+ T cells; remark: listed apart in the source
mouse CCR7 [11] = target: T8, mouse CCR7 (mouse, UniProt P47774 25-378); test: FACS titration, NIH3T3 cells expressing mouse CCR7
T8 construct: also called NIH3T3.mouse CCR7
T8 sequence: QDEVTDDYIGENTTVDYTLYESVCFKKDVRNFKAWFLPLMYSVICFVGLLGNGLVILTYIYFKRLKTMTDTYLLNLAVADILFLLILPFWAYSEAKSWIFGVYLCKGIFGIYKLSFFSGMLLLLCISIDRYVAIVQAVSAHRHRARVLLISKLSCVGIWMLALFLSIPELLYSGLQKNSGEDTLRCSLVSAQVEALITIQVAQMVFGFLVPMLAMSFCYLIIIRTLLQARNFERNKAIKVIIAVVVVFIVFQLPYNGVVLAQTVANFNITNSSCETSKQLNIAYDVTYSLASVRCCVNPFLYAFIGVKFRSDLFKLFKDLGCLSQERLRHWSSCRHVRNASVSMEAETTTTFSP

rat CCR7 [12] = target: T7, rat CCR7; test: FACS titration, NIH3T3 cells expressing rat CCR7
human CCR7 [13] = target: T2, human CCR7; test: cell-based or functional assay
mouse CCR7 [14] = target: T8, mouse CCR7; test: FACS titration, CD-1 mouse CD4+ T cells
human CCR7 [15] = target: T2, human CCR7; test: FACS titration, Jeko-1 cancer cells (CCR7+)
human CCR7 [16] = target: T2, human CCR7; test: FACS titration, human CD4+ T cells from PBMC; remark: listed apart in the source
human CCR7 [17] = target: T2, human CCR7; test: FACS titration, NIH3T3 cells expressing human CCR7; remark: listed apart in the source
cynomolgus monkey CCR7 [18] = target: T5, cynomolgus monkey CCR7; test: FACS titration, NIH3T3 cells expressing cyno CCR7; remark: listed apart in the source

T6 sequence (P51685 whole entry): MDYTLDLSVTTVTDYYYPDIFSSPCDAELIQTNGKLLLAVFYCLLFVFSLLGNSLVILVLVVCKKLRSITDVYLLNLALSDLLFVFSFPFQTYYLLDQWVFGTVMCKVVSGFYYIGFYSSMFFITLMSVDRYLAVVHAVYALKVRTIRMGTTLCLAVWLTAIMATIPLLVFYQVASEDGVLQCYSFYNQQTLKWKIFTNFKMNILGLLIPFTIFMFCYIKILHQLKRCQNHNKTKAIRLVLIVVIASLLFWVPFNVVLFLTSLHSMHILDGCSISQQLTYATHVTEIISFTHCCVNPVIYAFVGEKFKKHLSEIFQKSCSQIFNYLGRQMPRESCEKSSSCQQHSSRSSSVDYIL
T1 sequence (P61073 whole entry): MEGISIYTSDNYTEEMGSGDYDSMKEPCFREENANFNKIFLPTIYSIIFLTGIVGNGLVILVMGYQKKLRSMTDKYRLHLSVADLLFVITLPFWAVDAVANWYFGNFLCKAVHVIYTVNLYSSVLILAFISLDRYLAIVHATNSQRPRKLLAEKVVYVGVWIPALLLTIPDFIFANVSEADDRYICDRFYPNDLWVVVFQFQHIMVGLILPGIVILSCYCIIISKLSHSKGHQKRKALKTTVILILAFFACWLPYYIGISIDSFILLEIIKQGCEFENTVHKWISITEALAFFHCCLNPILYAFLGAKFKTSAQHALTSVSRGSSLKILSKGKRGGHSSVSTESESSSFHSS

binding result (CXCR4): no binding (tested: 5 ug/ml)
EC50 (human CCR7 [1]): 30 to 34 nM
binding result (CCR6): no binding (tested: 5 ug/ml)
binding result (CCR9): no binding (tested: 5 ug/ml)
Kd (human CCR7 [2]): 0.521 nM
EC50 (cynomolgus monkey CCR7 [3]): 12 nM
EC50 (human CCR7 [4]): 1 nM
EC50 (cynomolgus monkey CCR7 [5]): 0.9 nM
binding result (CCR8): no binding (tested: 5 ug/ml)
EC50 (human CCR7 [6]): 5.24 nM
Kd (human CCR7 [7]): 0.141 nM
B1: 121G12 humanized CysMab (Fc Wild Type) (antibody, V domains shown)
VH: EVQLVESGGGLVKPGGSLRLSCAASGFTFSTYAMSWVRQAPGKGLEWVATISDAGSYSYYPDNVKGRFTISRDNAKNSLYLQMNSLRAEDTAVYYCARRGSRYEEYYVMDYWGQGTTVTVSS
VL: EIVLTQSPATLSVSPGERVTLSCRASQSISNNLHWYQQKPGQAPRLLIKYASQSISGIPARFSGSGSGTDFTLTISSVEPEDFGVYFCQQSSSWLTFGQGTKLEIK
notes: Human IgG1 kappa with CysMab cysteines (E152C, S375C); also called Humanized CysMab antibody 121G12; 121G12.CysMab.DAR4 unconjugated (assigned)

binding result (CXCR4): no binding (tested: 5 ug/ml)
EC50 (human CCR7 [1]): 6.7 nM
binding result (CCR6): no binding (tested: 5 ug/ml)
binding result (CCR9): no binding (tested: 5 ug/ml)
Kd (human CCR7 [2]): 0.504 nM
fold change (pH 5.8/7.4) (human CCR7 [8]): 13 fold
binding result (CCR8): no binding (tested: 5 ug/ml)
Kd (human CCR7 [7]): 0.0374 nM
B2: 684E12 humanized CysMab (Fc Wild Type) (antibody, V domains shown)
VH: EVQLVESGGGLVKPGGSLRLSCAASGFTFSNFAMSWVRQAPGKGLEWVSTISTGGTYTYYPDSVKGRFTISRDNAKNSLYLQMNSLRAEDTAVYYCARRGYSGVDKWGQGTTVTVSS
VL: DVVMTQSPLSLPVTLGQPASISCKSGQSLLDSTGKTYLNWFLQRPGQSPRRLIYLVSKLDSGVPDRFSGSGSGTDFTLKISRVEAEDVGVYYCWQGTHFPQTFGGGTKLEIK
notes: Human IgG1 kappa with CysMab cysteines; also called Humanized CysMab antibody 684E12

EC50 (rat CCR7 [9]): 18 to 31 nM
EC50 (cynomolgus monkey CCR7 [10]): 5.8 to 12 nM
EC50 (mouse CCR7 [11]): 2.5 nM
EC50 (rat CCR7 [12]): 2.4 nM
ADCC activity; IC50 (nM); reporter assay, JVM2 targets and Jurkat-V158 effectors (human CCR7 [13]): 0.077 nM
EC50 (mouse CCR7 [14]): 48 to 51 nM
EC50 (human CCR7 [15]): 1.5 nM
EC50 (human CCR7 [16]): 22 to 30 nM
EC50 (human CCR7 [17]): 1.3 nM
EC50 (cynomolgus monkey CCR7 [18]): 1.3 nM
B3: 121G12 non-humanized CysMab (antibody, human IgG1, kappa, V domains shown)
VH: EVQLVESGGGLVKPGGSLKLSCAASGFTFSTYAMSWVRQTPEKRLEWVATISDGGSYSYYPDNVKGRFTISRDNAKNNLYLQMSHLKSEDTAMYYCARRGSRYEEYYVMDYWGQGTSVTVSS
VL: DIVLTQSPATLSVTPGDSVSLSCRASQSISNNLHWYQQKSHESPKLLIKYASQSISGIPSRFSGSGSGTDFTLSINSVETEDFGMYFCQQSNSWLTFGAGTKLGLKR
notes: Chimeric: murine variable regions on human IgG1 kappa with CysMab cysteines (E152C, S375C) and wild type Fc; also called Parental 121G12 hIgG1 CysMab; Non-humanized CysMab antibody 121G12

— patent publication US20230181756A1 (Novartis, published 2023)
